Reference: patent EP2025757A2
One block for each binder: values may come before it. Ends that are not written are not given here.

Assays:
[1] = biological target: serpin enzyme complex receptor (SEC-R) on human hepatoma cell lines (human); assay: fluorescence microscopy of HuH7 cells with 100 nM fluorescein labeled peptide at 4 C; cells per 100 counted
[2] = biological target: serpin enzyme complex receptor (SEC-R) on human hepatoma cell lines (human); assay: fluorescence microscopy of HepG2(low) cells with 100 nM fluorescein labeled peptide at 4 C; cells per 100 counted
[3] = biological target: serpin enzyme complex receptor (SEC-R) on human hepatoma cell lines (human); assay: fluorescence microscopy of HepG2(high) cells with 100 nM fluorescein labeled peptide at 4 C; cells per 100 counted
[4] = biological target: serpin enzyme complex receptor (SEC-R) on human hepatoma cell lines (human); assay: 125I-C105Y specific binding on cells
[5] = biological target: serpin enzyme complex receptor (SEC-R) on human hepatoma cell lines (human); assay: 125I-C105Y saturation binding on HuH7 cells, Scatchard analysis
[6] = biological target: serpin enzyme complex receptor (SEC-R) on human hepatoma cell lines (human); assay: 125I-C105Y saturation binding on HepG2 (low) cells, Scatchard analysis
[7] = biological target: serpin enzyme complex receptor (SEC-R) on human hepatoma cell lines (human); assay: 125I-C105Y saturation binding on HepG2 (high) cells, Scatchard analysis

- Average % Fluorescent Cells [1]: 14.3%
- Average % Fluorescent Cells [2]: 1.8%
- Average % Fluorescent Cells [3]: 20.4%
B1: fluorescein labeled C1315 peptide (peptide)
peptide: CFLEAIPMSIPPEVKFNKPFVFLIIHRD
modifications: also: labelled with fluorescein isothiocyanate, site not given here

- fold less specific binding, HepG2 (low) against HepG2 (high) [4]: 7.5 fold
- fold less specific binding, HepG2 (low) against HuH7 [4]: 10 fold
- fold more C105Y bound, HuH7 against HepG2 (high) [4]: 1.5 fold
- Kd [5]: 70 nM
- Kd [6]: 22.5 nM
- Kd [7]: 50 nM
B2: Peptide C105Y (peptide)
peptide: CSIPPEVKFNKPFVYLI
modifications: also: radio-iodinated with 125I, site not given here
